From US20160075784A1

Key:
[1] = biological target: CS1-specific CAR (anti-CS1-scFv-CD28-CD3ζ; Pinco-CS1-CAR construct), expressed on transduced primary human T cells; experiment: flow cytometry, CS1-CAR-transduced healthy donor T cells
[2] = biological target: CS1-specific CAR (anti-CS1-scFv-CD28-CD3ζ; Pinco-CS1-CAR construct), expressed on transduced primary human T cells; experiment: flow cytometry, CS1-CAR-transduced T cells of patients with relapsed myeloma, double staining with anti-CD3

Sequence of CS1-specific CAR (anti-CS1-scFv-CD28-CD3ζ; Pinco-CS1-CAR construct), expressed on transduced primary human T cells (chain, as listed by the source): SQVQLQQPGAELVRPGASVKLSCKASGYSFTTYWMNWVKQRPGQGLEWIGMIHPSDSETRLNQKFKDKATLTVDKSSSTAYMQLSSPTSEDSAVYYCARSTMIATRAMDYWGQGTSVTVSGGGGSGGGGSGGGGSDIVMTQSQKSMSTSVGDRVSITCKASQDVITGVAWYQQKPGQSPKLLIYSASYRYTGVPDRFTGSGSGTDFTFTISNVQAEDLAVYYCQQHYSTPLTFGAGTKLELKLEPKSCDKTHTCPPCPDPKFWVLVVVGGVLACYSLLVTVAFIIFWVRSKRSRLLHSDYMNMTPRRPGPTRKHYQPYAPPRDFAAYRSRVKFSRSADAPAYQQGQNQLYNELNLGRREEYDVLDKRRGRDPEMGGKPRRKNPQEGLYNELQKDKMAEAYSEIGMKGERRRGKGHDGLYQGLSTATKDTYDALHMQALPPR

percent of cells stained [1]: 70.3%
percent of cells stained [2]: 60.7%
Substance: biotin-labeled goat anti-mouse (Fab)2 polyclonal antibody (Jackson ImmunoResearch)
